Measurements published in patent US20040058457 (published 2004).

Legend:
[1] = biological target: T1, GST-Zif268 (PED107) (mouse, UniProt P08046 SEQ:1-90); experiment: EMSA; protein bound to Au-GSH nanoparticles; DNA co-migrated with Au particles; 1% agarose, 1xTAE, RT 10 min
[2] = biological target: T1, GST-Zif268 (PED107); experiment: EMSA; 1% agarose gel, RT 10 min, 0-4 uL of 1 mg/mL protein; shorter DNA trapped in well with increasing protein

Row | Binder | binding result [1] | binding result [2]
1 | NZ-23 (as added to Au-GSH/GST-Zif268 assay) (dsDNA) DNA 1: AAGGGTTCAGCGTGGGCG DNA 2: CGCCCACGCTGAACCCTT | binds | –
2 | NZ-23 420 bp fragment with 23 tandem Zif268 sites separated by NRE sites (dsDNA) DNA 1: AAGGGTTCAGCGTGGGCG DNA 2: CGCCCACGCTGAACCCTT | – | binds
